The values below come from IntAct's records for PubMed 19424970.

The labels stand for the following.
B1: UL16-binding protein 2 (Homo sapiens), Q9BZM5 (parent)
chain: MAAAAATKILLCLPLLLLLSGWSRAGRADPHSLCYDITVIPKFRPGPRWCAVQGQVDEKTFLHYDCGNKTVTPVSPLGKKLNVTTAWKAQNPVLREVVDILTEQLRDIQLENYTPKEPLTLQARMSCEQKAEGHSSGSWQFSFDGQIFLLFDSEKRMWTTVHPGARKMKEKWENDKVVAMSFHYFSMGDCIGWLEDFLMGMDSTLEPSAGAPLAMSSGTTQLRATATTLILCCLLIILPCFILPGI

The variants in this assay derive from B1. To be noted: with nkg2d_human KLRK1, P26718.
Chain of nkg2d_human KLRK1, P26718 (P26718 whole entry): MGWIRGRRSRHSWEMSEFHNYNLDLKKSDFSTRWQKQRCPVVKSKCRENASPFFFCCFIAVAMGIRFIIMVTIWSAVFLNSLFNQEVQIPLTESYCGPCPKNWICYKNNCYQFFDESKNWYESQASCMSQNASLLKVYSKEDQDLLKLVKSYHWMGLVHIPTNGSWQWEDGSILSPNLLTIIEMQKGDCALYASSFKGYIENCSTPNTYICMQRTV
On to F141L, for which the “effect of a mutation on the interaction” value is listed as “decreasing interaction strength”.
